Source: paper PMC9321335, “Palmitic Acid-Conjugated Radiopharmaceutical for Integrin αvβ3-Targeted Radionuclide Therapy” (Pharmaceutics, 2022)
Read-outs that look alike come from different tables or passages of the source.

Assays:
[1] = parameters: species or system C57BL/6 mice; settings: mouse, in vivo
Procedure: Female KM mice were randomly divided into three groups (n = 5). […] Blood samples obtained from the canthus vein were collected at different time points post injection (p.i.), weighed, and evaluated using a γ-counter. The results are presented as the percentage injected activity per gram (%IA/g). Nonlinear regression (curve fit) followed by two phase decay was performed using GraphPad Prism version 9.0.0 for Windows, GraphPad Software, San Diego, CA, USA, www.graphpad.com (accessed on 22 May 2022). And then the half-lives values were calculated and determined. Blood clearance studies were performed in normal KM mice. […] Blood clearance studies were also performed in C57BL/6 mice.

[2] = parameters: species or system KM mice; settings: mouse, in vivo, iv
Procedure: Female KM mice were randomly divided into three groups (n = 5). […] Blood samples obtained from the canthus vein were collected at different time points post injection (p.i.), weighed, and evaluated using a γ-counter. The results are presented as the percentage injected activity per gram (%IA/g). Nonlinear regression (curve fit) followed by two phase decay was performed using GraphPad Prism version 9.0.0 for Windows, GraphPad Software, San Diego, CA, USA, www.graphpad.com (accessed on 22 May 2022). And then the half-lives values were calculated and determined.

physchem = assay type: physicochemical
Procedure: Briefly, the radiopharmaceuticals were prepared and purified with Sep-Pak-C18 cartridges and then dissolved in a mixed solution of 5 mL n-octanol and 5 mL PBS. After vortexing for 1 h, the mixture was centrifuged at 10,000 rpm for 10 min. Samples (100 μL, n = 4) from the n-octanol and PBS components were collected and counted using a γ-counter. The […] were calculated as the logarithm of the n-octanol/PBS ratio.

With CCCCCCCCCCCCCCCC(=O)N[C@@H](CCC(=O)NCCCC[C@H](NC(=O)CN1CCN(CC(=O)O)CCN(CC(=O)O)CCN(CC(=O)O)CC1)C(=O)NCCOCCOCCOCCOCCC(=O)N[C@@H](CCC(=O)NCCOCCOCCOCCOCCC(=O)NCCCC[C@@H]1NC(=O)[C@@H](Cc2ccccc2)NC(=O)[C@H](CC(=O)O)NC(=O)CNC(=O)[C@H](CCCNC(=N)N)NC1=O)C(=O)NCCOCCOCCOCCOCCC(=O)NCCCC[C@@H]1NC(=O)[C@@H](Cc2ccccc2)NC(=O)[C@H](CC(=O)O)NC(=O)CNC(=O)[C@H](CCCNC(=N)N)NC1=O)C(=O)O [^177Lu-Palm-3PRGD2, [^177Lu]Lu-DOTA-Palm-3PRGD2, metal not drawn] the “Half-Life (T1/2α)” value [1] was 2.08 min, the “Half-Life (T1/2β)” value [1] was 63.71 min and the “Half-Life (T1/2α)” value [2] was 4.49 min. For the same molecule, the “Half-Life (T1/2β)” value [2] was 73.42 min and the logD (physchem) was -1.25 ± 0.07.
